Laboratory results from US20200362024A1, “BIOLOGICAL MATERIALS AND USES THEREOF” (IMPERIAL INNOVATIONS LIMITED, priority 2009, published 2020).

Assays:
[1] = tested on: primary human macrophages; assay: Cytokine synthesis in primary human macrophages stimulated with tenascin-C or its domains; format: cell-based
Protocol: Human monocytes were isolated from peripheral blood (London Blood Bank) and macrophages were derived from monocytes after differentiation for 4 days with 100 ng/ml of M-CSF as previously described (Foxwell (1998)).
(§1) Immediately after isolation, RA membrane cells and macrophages were cultured at 1×10^5 cells/well in RPMI 1640 containing 10% (v/v) FBS and 100 U/ml (Units/ml) penicillin/streptomycin in 96-well tissue culture plates for 24 hours before stimulation. Synovial fibroblasts (used only at either passage number 2 or 3) were cultured at 1×10^4 cells/well in DMEM containing 10% (v/v) FBS and 100 U/ml penicillin/streptomycin in 96-well tissue culture plates for 24 hours before stimulation.
(§2) Cells were incubated for 24 hours at 37° C. with the indicated doses of tenascin-C and recombinant tenascin-C fragments (1.0 μM-1.0 nM). Cells were also stimulated where indicated with LPS (1 ng/ml for human macrophages, 10 ng/ml for human fibroblasts, RA membrane cells and HEKs, 100 ng/ml for MEFS and BMDMs and 10 ng/ml for HEKS), PAM3 (10 ng/ml for human macrophages, human fibroblasts, and HEKs, 100 ng/ml for MEFs and BMDMs), murine IL-1 (5 ng/ml for MEFS) and murine TNF-α (100 ng/ml for MEFS). Unless specifically stated otherwise rough LPS was used for in vitro studies.
(§3) Where stated, cells were pre-incubated with 10 μg/ml anti-CD14 antibody, 10 μg/ml IL1 receptor antagonist, 10 μg/ml anti-TLR2 antibody, 25 μg/ml anti-TLR4 antibody, 10 or 25 μg/ml isotype control antibody, 25 μg/ml polymyxin B, or 1 μg/ml msbB LPS, for 30 minutes at 37° C. before stimulation. Where stated, recombinant tenascin-C and FBG, and LPS were boiled for 15 minutes before addition to cells
(§4) Supernatants were subsequently examined for the presence of the cytokines TNF-α, IL-6, and IL-8 by enzyme-linked immunosorbent assay (ELISA) according to the manufacturer's instructions. Absorbance was read on a spectrophotometric ELISA plate reader (Labsystems Multiscan Biochromic, Vantaa, Finland) and analyzed using the Ascent software program (Thermo Labsystems, Altrincham, UK).

RA synovial fibroblasts = assay: Cytokine synthesis in RA synovial fibroblasts stimulated with tenascin-C, FBG or LPS; format: cell-based, human; conditions: 24 h; LPS 10 ng/ml
Text: RA membrane cells (representing a mixed population of all synovial cell types) were isolated from synovial membranes obtained from patients undergoing joint replacement surgery as previously described (Brennan (1989)). RA synovial fibroblasts were isolated from the mixed population of RA membrane cells as previously described (Brennan (1989)). The study was approved by the local Trust ethics committee (Riverside NHS Research Committee), and waste tissue (synovium after joint replacement surgery) was obtained only after receiving signed informed consent from the patient and anonymyzing the tissue to protect patient identity.
as §1, §2, §3, §4

[2] = tested on: knee joint of TLR2 and TLR4 null mice; assay: Intra-articular injection of FBG in TLR2 and TLR4 null mice; format: in vivo; conditions: 1 μg FBG intra-articular, 3 days
Text: Homozygous TLR2 and TLR4 deficient mice on a C57BL/6 background (an inbred strain of mice with a black coat) were obtained from B&K Universal (Hull, UK) Hoshino (1999) and Takeuchi (1999). Homozygous MyD88 deficient mice on a C57BL/6 background were provided by the Sanger Institute (Cambridge, UK). Age matched congenic inbred wild type C57B/L6 mice were obtained from Charles River (Margate, UK). For isolation of mouse embryo fibroblasts one female aged 8-10 weeks was mated with two males aged 8-10 weeks. For isolation of bone marrow derived macrophages mice were female and between 10-12 weeks of age at the time of experimentation.
Wild type mice were anesthetized by intraperitoneal injection of 150 μl of Hypnorm diluted 1:10 in sterile water and then injected with 100 ng, 1 or 3 μg FBG in 10 μl of sterile PBS into the right knee joint using a sterile 33-gauge microcannula. Control mice received an injection of 10 μl PBS alone or were not injected.
On days 3 and 7, mice were euthanized, the knee joints were excised and fixed in 10% (volume/volume) buffered formalin, decalcified, with 10% EDTA and processed to paraffin.
Coronal tissue sections (4 μm) were cut at 7 depths throughout the joint; 80 μm apart and stained with hematoxylin and eosin or Safranin-O to assess joint pathology. Histopathologic changes were scored using the following parameters as described in Van Lent (2006). […]

MyD88 = assay: FBG induction of IL-6 in RA synovial fibroblasts infected with adenovirus expressing dominant negative MyD88; format: cell-based, human; conditions: FBG 1 μM, 24 h; GFP control virus without effect
Text: Recombinant, replication-deficient adenoviral vectors encoding wild type MyD88 (AdMyD88 wt), dominant-negative forms of MyD88 (AdMyD88dn) and the GFP control (AdGFP) were constructed in-house. A description of the synthesis of these viruses is in Andreakos (2004). All viruses used in this study are E1/E3 deleted, belong to the Ad5 serotype. Viruses were propagated in 293 human embryonic kidney cells, purified by ultracentrifugation through two cesium chloride gradients, and viral titers determined by plaque assay as previously described (Sacre (2007)).
For adenoviral gene transfer experiments, human RA synovial fibroblasts were incubated with adenoviral vectors at a multiplicity of infection of 100, washed after 2 hours, cultured in complete medium for 24 hours, then stimulated for 24 hours, after which time supernatants were collected.
as §4

B1: FBG: recombinant fibrinogen-like globe, 227 amino acid globular domain at the C terminal of tenascin-C (protein)
chain: GLLYPFPKDCSQAMLNGDTTSGLYTIYLNGDKAEALEVFCDMTSDGGGWIVFLRRKNGRENFYQNWKAYAAGFGDRREEFWLGLDNLNKITAQGQYELRVDLRDHGETAFAVYDKFSVGDAKTRYKLKVEGYSGTAGDSMAYHNGRSFSTFDKDTDSAITNCALSYKGAFWYRNCHRVNLMGRYGDNNHSQGVNWFHWKGHEHSIQFAEMKLRPSNFRNLEGRRKRA
**Q.** What does the source list for B1?
**A.** TNF-α, IL-6 and IL-8 synthesis in human macrophages ([1]; 1.0 μM tenascin-C domains, 24 h): stimulated; cytokine stimulation: heat sensitivity and effect of polymyxin B ([1]; boiled 15 minutes, 25 μg/ml polymyxin B pre-incubation, human macrophages and synovial fibroblasts): heat sensitive and unaffected by polymyxin B; IL-6 synthesis in RA synovial fibroblasts (RA synovial fibroblasts): stimulated; IL-8 synthesis in RA synovial fibroblasts (RA synovial fibroblasts): did not induce; joint inflammation in TLR2 null mice [2]: able to induce; induction of IL-6 in synovial fibroblasts expressing dominant negative MyD88 (MyD88): abolished
